This passage reports EC50 results from patent publication US20260176358A1 (JIANGSU HENGRUI PHARMACEUTICALS, published 2026).

Assay [1] has as its target hTSLP (human, UniProt Q969D9 29-159). As to the kind of experiment: method of Test Example 4 of WO2021139758.
Assay [2] has as its target hIL5 (human, UniProt P05113 20-134). As to the kind of experiment: method of Test Example 4 of WO2021139758.

B1: HJ-5 (bispecific antibody)
chain 1: not shown
chain 2: DIQMTQSPSSVSASVGDRVTITCRASQDIANYLSWYQQKPGKSPKLLIYGTSNLEVGVPSRFSGSRSGTDFTLTISSLQPEDFATYYCLQDKEFPRTFGGGTKVEIKGGGGSSGAPRFLTRPKASVVSVGKDATLSSQIVGNPFPQVSWEKDKQPVTAGVRFRLAQDGDLYRLKILDLQLSDSGQYVSRARNAHGEAFACLGLQVDAEA
chain 3: EVQLVQSGAEVKKPGSSVKVSCKASGYTFSNYLIEWVRQAPGQGLEWIGVIDPGVGDTNYNENFKGRATLTADKSTSTAYIELSSLRSEDTAVYYCAREDNTGTAFDYWGQGTTVTVSSASTKGPSVFPLAPSSKSTSGGTAALGCLVKDYFPEPVTVSWNSGALTSGVHTFPAVLQSSGLYSLSSVVTVPSSSLGTQTYICNVNHKPSNTKVDKKVEPKSCDKTHTCPPCPAPEAAGGPSVFLFPPKPKDTLMISRTPEVTCVVVDVSHEDPEVKFNWYVDGVEVHNAKTKPREEQYNSTYRVVSVLTVLHQDWLNGKEYKCKVSNKALPAPIEKTISKAKGQPREPQVCTLPPSREEMTKNQVSLSCAVKGFYPSDIAVEWESNGQPENNYKTTPPVLDSDGSFFLVSKLTVDKSRWQQGNVFSCSVMHEALHNHYTQKSLSLSPGK
chain 4: SIVMTQTPLSLSVTPGQPASISCKASQSVSSDVTWYLQKPGQSPQLLIYYVSEHYTGVPDRFSGSGYGTDFTLKISRVEAEDVGVYYCQQHHRFPLTFGQGTKLEIKRTVAAPSVFIFPPSDEQLKSGTASVVCLLNNFYPREAKVQWKVDNALQSGNSQESVTEQDSKDSTYSLSSTLTLSKADYEKHKVYACEVTHQGLSSPVTKSFNRGEC
For B1, the EC50 (in general, the concentration that produces a half-maximal response) in assay [1] was 2.64 nM; in assay [2], 16 nM.

B2: HJ-8 (bispecific antibody)
chain 1: not shown
chain 2: DIQMTQSPSSVSASVGDRVTITCRASQDIANYLSWYQQKPGKSPKLLIYGTSNLEVGVPSRFSGSRSGTDFTLTISSLQPEDFATYYCLQDKEFPRTFGGGTKVEIKRTVASSGAPRFLTRPKASVVSVGKDATLSSQIVGNPFPQVSWEKDKQPVTAGVRFRLAQDGDLYRLKILDLQLSDSGQYVSRARNAHGEAFACLGLQVDAEA
chain 3: EVQLVQSGAEVKKPGSSVKVSCKASGYTFSNYLIEWVRQAPGQGLEWIGVIDPGVGDTNYNENFKGRATLTADKSTSTAYIELSSLRSEDTAVYYCAREDNTGTAFDYWGQGTTVTVSSASTKGPSVFPLAPSSKSTSGGTAALGCLVKDYFPEPVTVSWNSGALTSGVHTFPAVLQSSGLYSLSSVVTVPSSSLGTQTYICNVNHKPSNTKVDKKVEPKSCDKTHTCPPCPAPEAAGGPSVFLFPPKPKDTLMISRTPEVTCVVVDVSHEDPEVKFNWYVDGVEVHNAKTKPREEQYNSTYRVVSVLTVLHQDWLNGKEYKCKVSNKALPAPIEKTISKAKGQPREPQVCTLPPSREEMTKNQVSLSCAVKGFYPSDIAVEWESNGQPENNYKTTPPVLDSDGSFFLVSKLTVDKSRWQQGNVFSCSVMHEALHNHYTQKSLSLSPGK
chain 4: SIVMTQTPLSLSVTPGQPASISCKASQSVSSDVTWYLQKPGQSPQLLIYYVSEHYTGVPDRFSGSGYGTDFTLKISRVEAEDVGVYYCQQHHRFPLTFGQGTKLEIKRTVAAPSVFIFPPSDEQLKSGTASVVCLLNNFYPREAKVQWKVDNALQSGNSQESVTEQDSKDSTYSLSSTLTLSKADYEKHKVYACEVTHQGLSSPVTKSFNRGEC
Regarding B2, the EC50 in assay [1] came to 3.33 nM; in assay [2], 18.7 nM.

B3: HJ-6 (bispecific antibody)
chain 1: not shown
chain 2: DIQMTQSPSSVSASVGDRVTITCRASQDIANYLSWYQQKPGKSPKLLIYGTSNLEVGVPSRFSGSRSGTDFTLTISSLQPEDFATYYCLQDKEFPRTFGGGTKVEIKGGGGSSGAPRFLTCPKASVVSVGKDATLSSQIVGNPFPQVSWEKDKQPVTAGVRFRLAQDGDLYRLKILDLQLSDSGQYVSRARNAHGEAFACLGLQVDAEA
chain 3: EVQLVQSGAEVKKPGSSVKVSCKASGYTFSNYLIEWVRQAPGQGLEWIGVIDPGVGDTNYNENFKGRATLTADKSTSTAYIELSSLRSEDTAVYYCAREDNTGTAFDYWGQGTTVTVSSASTKGPSVFPLAPSSKSTSGGTAALGCLVKDYFPEPVTVSWNSGALTSGVHTFPAVLQSSGLYSLSSVVTVPSSSLGTQTYICNVNHKPSNTKVDKKVEPKSCDKTHTCPPCPAPEAAGGPSVFLFPPKPKDTLMISRTPEVTCVVVDVSHEDPEVKFNWYVDGVEVHNAKTKPREEQYNSTYRVVSVLTVLHQDWLNGKEYKCKVSNKALPAPIEKTISKAKGQPREPQVCTLPPSREEMTKNQVSLSCAVKGFYPSDIAVEWESNGQPENNYKTTPPVLDSDGSFFLVSKLTVDKSRWQQGNVFSCSVMHEALHNHYTQKSLSLSPGK
chain 4: SIVMTQTPLSLSVTPGQPASISCKASQSVSSDVTWYLQKPGQSPQLLIYYVSEHYTGVPDRFSGSGYGTDFTLKISRVEAEDVGVYYCQQHHRFPLTFGQGTKLEIKRTVAAPSVFIFPPSDEQLKSGTASVVCLLNNFYPREAKVQWKVDNALQSGNSQESVTEQDSKDSTYSLSSTLTLSKADYEKHKVYACEVTHQGLSSPVTKSFNRGEC
As for B3, the EC50 was 2.88 nM in assay [1] and 37 nM in assay [2].

B4: HJ-10 (bispecific antibody)
chain 1: not shown
chain 2: DIQMTQSPSSVSASVGDRVTITCRASQDIANYLSWYQQKPGKSPKLLIYGTSNLEVGVPSRFSGSRSGTDFTLTISSLQPEDFATYYCLQDKEFPRTFGGGTKVEIKRTVASSGAPRFLTRPKASVVSVGKDATLSCQIVGNPFPQVSWEKDKQPVTAGVRFRLAQDGDLYRLKILDLQLSDSGQYVCRARNAHGEAFACLGLQVDAEA
chain 3: EVQLVQSGAEVKKPGSSVKVSCKASGYTFSNYLIEWVRQAPGQGLEWIGVIDPGVGDTNYNENFKGRATLTADKSTSTAYIELSSLRSEDTAVYYCAREDNTGTAFDYWGQGTTVTVSSASTKGPSVFPLAPSSKSTSGGTAALGCLVKDYFPEPVTVSWNSGALTSGVHTFPAVLQSSGLYSLSSVVTVPSSSLGTQTYICNVNHKPSNTKVDKKVEPKSCDKTHTCPPCPAPEAAGGPSVFLFPPKPKDTLMISRTPEVTCVVVDVSHEDPEVKFNWYVDGVEVHNAKTKPREEQYNSTYRVVSVLTVLHQDWLNGKEYKCKVSNKALPAPIEKTISKAKGQPREPQVCTLPPSREEMTKNQVSLSCAVKGFYPSDIAVEWESNGQPENNYKTTPPVLDSDGSFFLVSKLTVDKSRWQQGNVFSCSVMHEALHNHYTQKSLSLSPGK
chain 4: SIVMTQTPLSLSVTPGQPASISCKASQSVSSDVTWYLQKPGQSPQLLIYYVSEHYTGVPDRFSGSGYGTDFTLKISRVEAEDVGVYYCQQHHRFPLTFGQGTKLEIKRTVAAPSVFIFPPSDEQLKSGTASVVCLLNNFYPREAKVQWKVDNALQSGNSQESVTEQDSKDSTYSLSSTLTLSKADYEKHKVYACEVTHQGLSSPVTKSFNRGEC
B4: the EC50 is 3.17 nM in assay [1] and 20.8 nM in assay [2].

B5: HJ-9 (bispecific antibody)
chain 1: not shown
chain 2: DIQMTQSPSSVSASVGDRVTITCRASQDIANYLSWYQQKPGKSPKLLIYGTSNLEVGVPSRFSGSRSGTDFTLTISSLQPEDFATYYCLQDKEFPRTFGGGTKVEIKRTVASSGAPRFLTCPKASVVSVGKDATLSSQIVGNPFPQVSWEKDKQPVTAGVRFRLAQDGDLYRLKILDLQLSDSGQYVSRARNAHGEAFACLGLQVDAEA
chain 3: EVQLVQSGAEVKKPGSSVKVSCKASGYTFSNYLIEWVRQAPGQGLEWIGVIDPGVGDTNYNENFKGRATLTADKSTSTAYIELSSLRSEDTAVYYCAREDNTGTAFDYWGQGTTVTVSSASTKGPSVFPLAPSSKSTSGGTAALGCLVKDYFPEPVTVSWNSGALTSGVHTFPAVLQSSGLYSLSSVVTVPSSSLGTQTYICNVNHKPSNTKVDKKVEPKSCDKTHTCPPCPAPEAAGGPSVFLFPPKPKDTLMISRTPEVTCVVVDVSHEDPEVKFNWYVDGVEVHNAKTKPREEQYNSTYRVVSVLTVLHQDWLNGKEYKCKVSNKALPAPIEKTISKAKGQPREPQVCTLPPSREEMTKNQVSLSCAVKGFYPSDIAVEWESNGQPENNYKTTPPVLDSDGSFFLVSKLTVDKSRWQQGNVFSCSVMHEALHNHYTQKSLSLSPGK
chain 4: SIVMTQTPLSLSVTPGQPASISCKASQSVSSDVTWYLQKPGQSPQLLIYYVSEHYTGVPDRFSGSGYGTDFTLKISRVEAEDVGVYYCQQHHRFPLTFGQGTKLEIKRTVAAPSVFIFPPSDEQLKSGTASVVCLLNNFYPREAKVQWKVDNALQSGNSQESVTEQDSKDSTYSLSSTLTLSKADYEKHKVYACEVTHQGLSSPVTKSFNRGEC
In the case of B5, the figures for the EC50 in assay [1] and in assay [2] were 3.18 nM and 10.9 nM, respectively.

B6: HJ-7 (bispecific antibody)
chain 1: not shown
chain 2: DIQMTQSPSSVSASVGDRVTITCRASQDIANYLSWYQQKPGKSPKLLIYGTSNLEVGVPSRFSGSRSGTDFTLTISSLQPEDFATYYCLQDKEFPRTFGGGTKVEIKGGGGSSGAPRFLTRPKASVVSVGKDATLSCQIVGNPFPQVSWEKDKQPVTAGVRFRLAQDGDLYRLKILDLQLSDSGQYVCRARNAHGEAFACLGLQVDAEA
chain 3: EVQLVQSGAEVKKPGSSVKVSCKASGYTFSNYLIEWVRQAPGQGLEWIGVIDPGVGDTNYNENFKGRATLTADKSTSTAYIELSSLRSEDTAVYYCAREDNTGTAFDYWGQGTTVTVSSASTKGPSVFPLAPSSKSTSGGTAALGCLVKDYFPEPVTVSWNSGALTSGVHTFPAVLQSSGLYSLSSVVTVPSSSLGTQTYICNVNHKPSNTKVDKKVEPKSCDKTHTCPPCPAPEAAGGPSVFLFPPKPKDTLMISRTPEVTCVVVDVSHEDPEVKFNWYVDGVEVHNAKTKPREEQYNSTYRVVSVLTVLHQDWLNGKEYKCKVSNKALPAPIEKTISKAKGQPREPQVCTLPPSREEMTKNQVSLSCAVKGFYPSDIAVEWESNGQPENNYKTTPPVLDSDGSFFLVSKLTVDKSRWQQGNVFSCSVMHEALHNHYTQKSLSLSPGK
chain 4: SIVMTQTPLSLSVTPGQPASISCKASQSVSSDVTWYLQKPGQSPQLLIYYVSEHYTGVPDRFSGSGYGTDFTLKISRVEAEDVGVYYCQQHHRFPLTFGQGTKLEIKRTVAAPSVFIFPPSDEQLKSGTASVVCLLNNFYPREAKVQWKVDNALQSGNSQESVTEQDSKDSTYSLSSTLTLSKADYEKHKVYACEVTHQGLSSPVTKSFNRGEC
As to B6, the figures for the EC50 in assay [1] and in assay [2] were 2.18 nM and 17.7 nM, respectively.
